Positions count from the first letter of the chain named. Names and notes keep the numbering of the source. One block for each binder: values may come before it. Where no end group is shown, it is not given here.
T1: Human TROP2 ECD (31-274 AA), biotinylated (human, UniProt P09758 31-274, biotinylated (site not stated))
T1 construct: also called tumor-associated calcium signal transducer 2; Human TROP2-biotin
T1 sequence: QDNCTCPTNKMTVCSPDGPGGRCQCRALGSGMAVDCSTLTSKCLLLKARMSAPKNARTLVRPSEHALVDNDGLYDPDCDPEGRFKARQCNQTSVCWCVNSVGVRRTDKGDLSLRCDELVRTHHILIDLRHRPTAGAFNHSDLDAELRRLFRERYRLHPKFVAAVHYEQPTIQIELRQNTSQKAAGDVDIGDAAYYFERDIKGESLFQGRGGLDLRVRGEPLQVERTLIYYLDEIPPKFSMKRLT

T2: Peptide-66 (cysteine pairing not given here; also: biotinylated, site not given here)
T2 construct: mask peptide for the CD3 scFv
T2 peptide: GSQCLGPEWEVCPY

T3: Peptide-67 (cysteine pairing not given here; also: biotinylated, site not given here)
T3 construct: mask peptide for the CD3 scFv
T3 peptide: VYCGPEFDESVGCM

T4: Peptide-68 (cysteine pairing not given here; also: biotinylated, site not given here)
T4 construct: mask peptide for the CD3 scFv
T4 peptide: DWCWYSPDNDGLCD

T5: Peptide-71 (cysteine pairing not given here; also: biotinylated, site not given here)
T5 construct: mask peptide for the CD3 scFv
T5 peptide: VDCGPDGDESILCY

T6: Peptide-73 (cysteine pairing not given here; also: biotinylated, site not given here)
T6 construct: mask peptide for the CD3 scFv
T6 peptide: VYCGPEFDESVGCA

T7: Peptide-74 (cysteine pairing not given here; also: biotinylated, site not given here)
T7 construct: mask peptide for the CD3 scFv
T7 peptide: ASQCLGPEWEVCPY

T8: Peptide-75 (cysteine pairing not given here; also: biotinylated, site not given here)
T8 construct: mask peptide for the CD3 scFv
T8 peptide: GSACLGPEWEVCPY

T9: Human TROP2 Full length (human, UniProt P09758 31-323)
T9 sequence: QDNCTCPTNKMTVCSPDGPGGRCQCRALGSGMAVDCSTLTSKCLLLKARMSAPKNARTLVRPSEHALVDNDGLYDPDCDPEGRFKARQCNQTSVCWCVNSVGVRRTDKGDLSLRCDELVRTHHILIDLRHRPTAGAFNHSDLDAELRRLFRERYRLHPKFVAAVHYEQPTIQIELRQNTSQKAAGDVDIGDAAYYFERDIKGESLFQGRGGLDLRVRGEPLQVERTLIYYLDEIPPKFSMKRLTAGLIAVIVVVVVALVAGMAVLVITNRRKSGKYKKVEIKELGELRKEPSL

T10: Cyno TROP2 Full length (cynomolgus monkey, UniProt P09758 31-323 (human entry))
T10 chain: T9 sequence with M32V, S63N, I200V, M262V, T268S

T11: Human TROP2 ECD (31-274 AA) (human, UniProt P09758 31-274, biotinylated)
T11 construct: also called biotinylated TROP2; TROP2-biotin
T11 sequence: T1 sequence

B1: TCE-7 (anti-CD3 wt, anti-TROP2 F108A) (bispecific antibody)
light: DIQLTQSPSSLSASVGDRVSITCKASQDVSIAVAWYQQKPGKAPKLLIYSASYRYTGVPDRFSGSGSGTDFTLTISSLQPEDFAVYYCQQHYITPLTFGAGTKVEIKRTVAAPSVFIFPPSDEQLKSGTASVVCLLNNFYPREAKVQWKVDNALQSGNSQESVTEQDSKDSTYSLSSTLTLSKADYEKHKVYACEVTHQGLSSPVTKSFNRGEC
heavy: not shown
notes: scFv on the Fab heavy chain; the entry already carries the mutation
B2: PC-3 + MTSP1 (bispecific antibody)
light: B1 light
chain: not shown
modifications: Protease-treated product: both masks and the anti-albumin domain are cut off in the cleavable linkers.
notes: not shown: The few linker residues left at the N-terminus of each chain after the MTSP1 cut
B3: PC-2 + MTSP1 (bispecific antibody)
light: B1 light
chain: not shown
modifications: Protease-treated product: both masks and the anti-albumin domain are cut off in the cleavable linkers.
notes: as for B2
B4: TCE-26 (anti-CD3 scFv W233A; anti-TROP2 HC wt) (bispecific antibody)
light: B1 light
heavy: not shown
notes: scFv on the Fab heavy chain; also called TCE-26 (W233A)
B5: TCE-28 (anti-CD3 scFv S235A; anti-TROP2 wt) (bispecific antibody)
light: B1 light
heavy: not shown
notes: scFv on the Fab heavy chain
B6: Peptide-70 (peptide)
peptide: YLCGPDGDETLACY
modifications: cysteine pairing not given here; also: biotinylated, site not given here
notes: mask peptide for the CD3 scFv
B7: PC-18 (bispecific antibody)
light: GGVDFCALYHWPICYQGGGGSGGLSGRSDAGSPLGLAGSGGSDIQLTQSPSSLSASVGDRVSITCKASQDVSIAVAWYQQKPGKAPKLLIYSASYRYTGVPDRFSGSGSGTDFTLTISSLQPEDFAVYYCQQHYITPLTFGAGTKVEIKRTVAAPSVFIFPPSDEQLKSGTASVVCLLNNFYPREAKVQWKVDNALQSGNSQESVTEQDSKDSTYSLSSTLTLSKADYEKHKVYACEVTHQGLSSPVTKSFNRGEC
heavy: not shown
notes: Masked polypeptide complex: anti-TROP2 Fab F108A, anti-CD3 scFv wt; cleavable linkers

Columns and labels:
αCD3 scFv = target: T12, αCD3 scFv; test: competition ELISA; peptide titrated and pre-incubated with a constant concentration of αCD3 scFv; blocked: binding of the scFv to plate-bound biotinylated CD3
T12 construct: also called anti-CD3 scFv; CD3 scFv (SP34.185) wt

[1] = target: T1, Human TROP2 ECD (31-274 AA), …; test: ELISA on immobilized TROP2
[2] = target: T1, Human TROP2 ECD (31-274 AA), …; test: ELISA on immobilized TROP2; remark: listed apart in the source
[3] = target: T1, Human TROP2 ECD (31-274 AA), …; test: ELISA on immobilized TROP2; remark: listed apart in the source
[4] = target: T1, Human TROP2 ECD (31-274 AA), …; test: ELISA on immobilized TROP2; binder pre-treated with MTSP1
Peptide-66 = target: T2, Peptide-66; test: ELISA, TCE on captured biotin-peptide
Peptide-67 = target: T3, Peptide-67; test: ELISA, TCE on captured biotin-peptide
Peptide-68 = target: T4, Peptide-68; test: ELISA, TCE on captured biotin-peptide
Peptide-70 = target: B6; test: ELISA, TCE on captured biotin-peptide
Peptide-71 = target: T5, Peptide-71; test: ELISA, TCE on captured biotin-peptide
Peptide-73 = target: T6, Peptide-73; test: ELISA, TCE on captured biotin-peptide
Peptide-74 = target: T7, Peptide-74; test: ELISA, TCE on captured biotin-peptide
Peptide-75 = target: T8, Peptide-75; test: ELISA, TCE on captured biotin-peptide
[5] = target: T13, CD3 (biotinylated CD3 antigen) (human, UniProt P07766 23-126, limits assumed, biotinylated (site not stated)); test: ELISA: biotinylated CD3 captured on neutravidin plates, TCE titrated, HRP secondary antibody
T13 construct: also called CD3ε; human CD3

[6] = target: T14, TCE-10 (anti-CD3 scFv R100A; anti-TROP2 wt); test: competition ELISA, TCE on captured CD3
T14 construct: scFv on the Fab heavy chain; also called TCE-10 (R100A)

[7] = target: T15, TCE-13 (anti-CD3 scFv N103A; anti-TROP2 wt); test: competition ELISA, TCE on captured CD3
T15 construct: scFv on the Fab heavy chain; also called TCE-13 (N103A)

[8] = target: T16, TCE-14 (anti-CD3 scFv F104A; anti-TROP2 wt); test: competition ELISA, TCE on captured CD3
T16 construct: scFv on the Fab heavy chain; also called TCE-14 (F104A)

[9] = target: T17, TCE-20 (anti-CD3 scFv S110A; anti-TROP2 wt); test: competition ELISA, TCE on captured CD3
T17 construct: scFv on the Fab heavy chain; also called TCE-20 (S110A)

[10] = target: T18, TCE-22 (anti-CD3 scFv W112A; anti-TROP2 wt); test: competition ELISA, TCE on captured CD3
T18 construct: scFv on the Fab heavy chain; also called TCE-22 (W112A)

[11] = target: B4; test: competition ELISA, TCE on captured CD3
[12] = target: T19, TCE-31 (anti-CD3 scFv W238A; anti-TROP2 wt); test: competition ELISA, TCE on captured CD3
T19 construct: scFv on the Fab heavy chain; also called TCE-31 (W238A)

[13] = target: T20, TCE-36 (anti-CD3 scFv H101A; anti-TROP2 F108A); test: competition ELISA, TCE on captured CD3
T20 construct: scFv on the Fab heavy chain

[14] = target: T21, TCE-38 (anti-CD3 scFv F240A; anti-TROP2 F108A); test: competition ELISA, TCE on captured CD3
T21 construct: scFv on the Fab heavy chain

[15] = target: T22, TCE-1 (anti-CD3 scFv wt; anti-TROP2 Fab wt); test: competition ELISA: peptide titrated and pre-incubated with a constant concentration of TCE-1, binding of TCE-1 to plate-bound biotinylated CD3 detected
T22 construct: anti-CD3 scFv fused to the N-terminus of the anti-TROP2 Fab heavy chain; also called TCE-1 (wt)

[16] = target: T23, TCE-7 (anti-CD3 scFv wt; anti-TROP2 F108A); test: competition ELISA, TCE on captured CD3
T23 construct: scFv on the Fab heavy chain

[17] = target: T24, TCE-37 (anti-CD3 scFv F104A; anti-TROP2 F108A); test: competition ELISA, TCE on captured CD3
T24 construct: scFv on the Fab heavy chain

[18] = target: T25, TCE-39 (anti-CD3 scFv P41S, A49G, N87S, L150F, T151S, G163R, P175A, K181T, T200V, A202D, L208I, G211N, L217I, …); test: competition ELISA, TCE on captured CD3
T25 construct: scFv on the Fab heavy chain

Human TROP2 Full length = target: T9, Human TROP2 Full length; test: cell-based or functional assay
Cyno TROP2 Full length = target: T10, Cyno TROP2 Full length; test: cell-based or functional assay
[19] = target: T11, Human TROP2 ECD (31-274 AA); test: ELISA; biotinylated TROP2 on neutravidin plates, PC titrated, HRP secondary

IC50 (αCD3 scFv): 10 nM
Binder: YLCGPDGDETLACY (also called CD3 scFv peptide mask)

Binder: B1
EC50 [1]: 1.41 nM | EC50 [2]: 0.36 nM | EC50 [3]: 0.18 nM

Binder: B2
EC50 [4]: 0.42 nM

Binder: B3
EC50 [4]: 0.45 nM

Binder: B4
EC50 (Peptide-66): 6.28 nM | EC50 (Peptide-67): 6.46 nM | EC50 (Peptide-68): 2.68 nM | EC50 (Peptide-70): 0.95 nM | EC50 (Peptide-71): 4.69 nM | EC50 (Peptide-73): 6.63 nM | EC50 (Peptide-74): 5.47 nM | EC50 (Peptide-75): 6.26 nM | EC50 [5]: 1.81 nM

Binder: B5
EC50 [5]: 0.158 nM

IC50 (αCD3 scFv): 50 nM
Binder: VYCGPEFDESVGCM (also called CD3 scFv peptide mask) [Peptide-67]

Binder: B6
IC50 [6]: 240 nM | IC50 [7]: 2110 nM | IC50 [8]: 180 nM | IC50 [9]: 370 nM | IC50 [10]: 470 nM | IC50 [11]: 5000 nM | IC50 [12]: 43500 nM | IC50 [13]: 80 nM | IC50 [14]: 140 nM | IC50 (read off the curve) [15]: ~10 nM

IC50 [16]: 17500 nM | IC50 [17]: 950 nM | IC50 [18]: 2790 nM
Binder: YLCGPDADETLACY (cysteine pairing not given here; also: biotinylated, site not given here, mask peptide for the CD3 scFv) [Peptide-76]

Binder: B7
H292 Cytotoxicity EC50 (pM) (Human TROP2 Full length): > 100000 pM | HCT116 Cytotoxicity EC50 (pM) (Human TROP2 Full length): > 100000 pM | CyTROP2 HEK293 EC50 (pM) (Cyno TROP2 Full length): 8250 pM | EC50 [2]: 301 nM | EC50 [3]: 206 nM | EC50 [19]: 957 nM

Source: patent US20230357429A1 (JANUX THERAPEUTICS, published 2023)
